Earlier results, collected in PMC3601411.

Molecular target: Fibrinogen gamma chain C-terminal region (Homo sapiens) (UniProt P02679)
Test: isothermal calorimetry

## Clumping factor A (ClfA) 229-545 (from UniProt Q2G015)
  Kd: 657 nM
